# Laboratory results from patent publication CN113637074A (SHANGHAI HUAIYUE BIOTECHNOLOGY CO LTD, dated 2021).
# T1: 带His标签的NKp44蛋白 (human, UniProt O95944 22-190, limits assumed)
# T1 construct: also called 人NKp44; not shown: His tag
# T1 sequence (looked up): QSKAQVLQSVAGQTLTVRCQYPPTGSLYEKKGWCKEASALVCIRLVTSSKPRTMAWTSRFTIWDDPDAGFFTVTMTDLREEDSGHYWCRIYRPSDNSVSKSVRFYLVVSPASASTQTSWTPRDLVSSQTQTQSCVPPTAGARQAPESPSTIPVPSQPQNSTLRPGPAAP
# T2: 带His标签的NKp30蛋白 (human, UniProt O14931 19-138, limits assumed)
# T2 construct: also called 人NKp30; not shown: His tag
# T2 sequence (looked up): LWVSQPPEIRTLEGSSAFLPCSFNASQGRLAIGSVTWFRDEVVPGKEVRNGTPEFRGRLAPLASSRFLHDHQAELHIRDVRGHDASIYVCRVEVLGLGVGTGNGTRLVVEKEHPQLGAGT
# Legend:
# [1] = molecular target: T1, 带His标签的NKp44蛋白; assay: ELISA, His-tagged protein coated at 1 μg/ml, anti-human IgG Fc-HRP
# [2] = molecular target: T2, 带His标签的NKp30蛋白; assay: as above
binder,measurement,setting,value
"NKp46-1 (antibody, V domains shown, Lead antibody from a human common light chain phage library; also called Ab-1; 孔A5) VH: QVQLVQSGAEVKKPGSSVKVSCKASGGTFSNYGISWVRQAPGQGLEWIGRIIPYFGITNYAQKFQGRVTITADKSTSTAYMELSSLRSEDTAVYYCADNHLLRPGQNYYPWDYWGQGTTVTVSS VL: DIQMTQSPSSLSASVGDRVTITCRASQGISNALAWYQQKPGKAPKLLIYAASRLESGVPSRFSGSGSGTDFTLTISSLQPEDFATYYCQQHYSTPPTFGQGTKVEIK",binding result,[1],no binding (tested: 10μg/ml)
same,binding result,[2],no binding (tested: 10μg/ml)
